Experimental findings from the RNAGym collection of RNA variant scans (doi:10.1073/pnas.2313332121) are described below.

This sample holds only a part of the variants without activity.

B1: TPR 5TU (parent)
chain: GGAUCUUCUCGAUCUAACAAAAAAGACAAAUCUGCCACAAAGCUUGAGAGCAUCUUCGGAUGCAGAGGCGGCAGCCUUCGGUGGCGCGAUAGCGCCAACGUUCUCAACUAUGACACGCAAAACGCGUGCUCCGUUGAAUGGAGUUUAUCAUG

The variants in the data set derive from B1. Put plainly: polymerase ribozyme fitness, log enrichment relative to wild type (log ratio); higher = more active; in vitro selection for triplet polymerase activity. Summed up: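 Frozen incubation at −7 °C formed the core of a single, triplicate in vitro selection round applied to PCR-built, transcribed mutant libraries of each subunit of a heterodimeric triplet polymerase ribozyme. Extended constructs were gel-excised, captured with streptavidin beads and amplified by RT-PCR, and input and output libraries were Illumina-sequenced with a filter of ≥10 input reads and ≥1 read per output. Fitness is the logarithm of genotype enrichment relative to wild-type enrichment, with inverse-variance-weighted replicate averaging, and the logarithm is base 2.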
Consider A52C U56A G86A U90A A107C, for which the “polymerase ribozyme fitness (log ratio)” value is at most -4.2. The same measure for A12G A40G A41C G65A C85U A107G C123G G152A: at most -4.2; for U13C A41U U55A C96U C118A: -2.88. Regarding G71A C95U, the “polymerase ribozyme fitness (log ratio)” value is -3.12. The same measure for U55G C63A U134G: -3.01; for A28G A37C A41C C69A C85U G133C: at most -4.2.

In the case of A22U A39C G59C G143A, the “polymerase ribozyme fitness (log ratio)” value was -4.09. The same measure for C10A A22C A73U C79G C87A A113G: at most -4.2; for A23U A106G A138U: at most -4.2.

Turning to A39U C87U G133U U135G, the “polymerase ribozyme fitness (log ratio)” value is at most -4.2. The same measure for G42C U61A A64G A107G U130C: at most -4.2; for C75U G141A: -0.767; for U55G C131A: -2.39. The same measure for U33G C57G U104G: at most -4.2; for U56A C85U U144C: -0.306. The value for A29C G46U U127G was at most -4.2; that for U56G U61G G128U was -3.73; that for A19G G48A G62U A73G C96A A119G was at most -4.2.

Turning to U44A C57A C93A G133C, the “polymerase ribozyme fitness (log ratio)” value is at most -4.2. The same measure for C87A C95A: at most -4.2; for A3C U56A C69U A91U: at most -4.2; for C8A G86U: -3.72.

For G94U A98U G141A, the “polymerase ribozyme fitness (log ratio)” value came to 0.104. The same measure for A47U G50A C129U: -3.09; for G80U G86U U111C: at most -4.2; for C93U: -1.34.

For G67C C79G A97U C116A A142C, the “polymerase ribozyme fitness (log ratio)” value is at most -4.2.

As to A22U A89U C105U, the “polymerase ribozyme fitness (log ratio)” value was determined as 0.731. The value for A30U C38U G50C U56G G83U A137C was at most -4.2; that for U56G G62C A120C C132A U139G was at most -4.2. For A22U G84A, the “polymerase ribozyme fitness (log ratio)” value was -0.556.

In the case of U7C C35U C87G U104G, the “polymerase ribozyme fitness (log ratio)” value was -4.04. The value for A12G A52C G59A was -1.78; that for C35A A60C A66U A120U U146C A150U was at most -4.2.

Consider C51G A52U C63A A138U, for which the “polymerase ribozyme fitness (log ratio)” value was at most -4.2.

Take U6A A115U G141U: the “polymerase ribozyme fitness (log ratio)” value was -1.01.

Regarding A19C G59A C76G C87U, the “polymerase ribozyme fitness (log ratio)” value is at most -4.2. Regarding G94A C132G, the “polymerase ribozyme fitness (log ratio)” value was -3.64. The value for G50A G83A C87A A91C G92A U146A was at most -4.2; that for G25U G58U C69A G71C G94U G100C was at most -4.2; that for C14U A19C U45A G84A C96A U109C was at most -4.2. The value for G50A A52C C57G C93U was -3.12; that for A23U U56A was -3.49. The same measure for A16U G84U: -3.5; for A21U C38U C63G G84U: -0.36; for A41C A47C G59A A60G C85A U127G A137G: at most -4.2. Turning to A12U G84A G88C A119C G140A, the “polymerase ribozyme fitness (log ratio)” value is at most -4.2. The value for G94C C103U A119C C125A was -2.

Take C10U A20U G83U: the “polymerase ribozyme fitness (log ratio)” value is -3.85. As to G11A G83A G94U G128U U145G, the “polymerase ribozyme fitness (log ratio)” value was at most -4.2.

As to A41C C63G G86A A115C, the “polymerase ribozyme fitness (log ratio)” value was -2.61. The same measure for U6C U31C A119G: -0.646; for G50C C103A U139C: at most -4.2; for C36A C57A C79A G83U C93G C114U: at most -4.2.

As for C38A G80U C125U, the “polymerase ribozyme fitness (log ratio)” value is -2.34. The value for A98U U135A was -2.55; that for A47G G74A was -3.67. The value for C85G U145C was -2.42; that for C108G U144C was -4.13. The value for G59U G84A U104C was -0.647; that for A40U U44A C57U C76G A91U U134C G136C was at most -4.2; that for A17C U53A A73U C76A C85G C108A U146A was at most -4.2. Consider G42U C43G G86U G94U U144A, for which the “polymerase ribozyme fitness (log ratio)” value was at most -4.2.

As for G58A G92A U127C U135G G143U U151G, the “polymerase ribozyme fitness (log ratio)” value is at most -4.2.

Regarding C5U U31C A37U C76G U109C U135C, the “polymerase ribozyme fitness (log ratio)” value was at most -4.2. The value for A16G G48U U109G was -3.48. The value for G50C G65C G68A G86U A147G was at most -4.2; that for U56A C69A C79U C93G U151A was at most -4.2. The same measure for U56A C87U U148A: -3.33; for U45A C79U C103A C118U: at most -4.2. For the variant A47U C93A, the “polymerase ribozyme fitness (log ratio)” value is -2.17. The same measure for U53A G74A U145G: at most -4.2; for C35A G68A C95G C132G: at most -4.2. For U6C U78G U111G U134C, the “polymerase ribozyme fitness (log ratio)” value was -4.14. The value for G68C A122C U127A was at most -4.2; that for U55A A66G G86A A97G U146G was at most -4.2; that for C57U G84A C93U was -2.9. The value for C32G C72G C87G C114U U139A was at most -4.2; that for G86A U111C was -3.31. The value for A91C A137C A150C U151G was at most -4.2; that for U33G C51U G80U C87A C96U A120G C129A U148G was at most -4.2; that for A49C C99U U102G U109A was -2.46. For the variant A41U U55G, the “polymerase ribozyme fitness (log ratio)” value was -0.663.
